Consider one protein from PMC3744504, “Soluble Variants of Human Recombinant Glutaminyl Cyclase” (PLoS ONE, 2013).

This data set concerns the molecule itself. In words: SEC; analytical size exclusion chromatography (Superdex 5/150 column) on 50 µl of sample after the Ni-affinity step. A general note: SEC sorts molecules by how far they enter the pores of the column.

B1: wild type human Glutaminyl Cyclase (hQPCT), Ala33-Leu361, His6-tagged (enzyme, UniProt Q16769 33-361, looked up)
chain: ASAWPEEKNYHQPAILNSSALRQIAEGTSISEMWQNDLQPLLIERYPGSPGSYAARQHIMQRIQRLQADWVLEIDTFLSQTPYGYRSFSNIISTLNPTAKRHLVLACHYDSKYFSHWNNRVFVGATDSAVPCAMMLELARALDKKLLSLKTVSDSKPDLSLQLIFFDGEEAFLHWSPQDSLYGSRHLAAKMASTPHPPGARGTSQLHGMDLLVLLDLIGAPNPTFPNFFPNSARWFERLQAIEHELHELGLLKDHSLEGRYFQNYSYGGVIQDDHIPFLRRGVPVLHLIPSPFPEVWHTMDDNEENLDESTIDNLNKILQVFVLEYLHL
notes: human glutaminyl-peptide cyclotransferase (glutaminyl cyclase), residues Ala33-Leu361, cloned in pQE80L; Not glycosylated (E. coli); Apo-protein mass by MALDI 38735 Da; No preparative size exclusion step was applied to the wild type; also called wild type hQPCT; Glutaminyl-peptide Cyclotransferase; not shown: His6, N-terminal, kept
With B1, the binding result is on record as “binds”.
